Two proteins from article PMC11793155 can be followed below.

Series [1] can be described thus: immunofluorescence, confocal microscopy. The settings on record: glycan lost; control: untreated cells.
Series [2] is described as follows: cycloheximide chase 0-12 h, western blot. The settings on record: glycan lost; control: CHX alone. In general terms: In western blotting, separated proteins are transferred to a membrane and probed.

B1: ACTRIIB (activin receptor type IIB, ACVR2B): tunicamycin (TM) (protein)
parent chain: MTAPWVALALLWGSLCAGSGRGEAETRECIYYNANWELERTNQSGLERCEGEQDKRLHCYASWRNSSGTIELVKKGCWLDDFNCYDRQECVATEENPQVYFCCCEGNFCNERFTHLPEAGGPEVTYEPPPTAPTLLTVLAYSLLPIGGLSLIVLLAFWMYRHRKPPYGHVDIHEDPGPPPPSPLVGLKPLQLLEIKARGRFGCVWKAQLMNDFVAVKIFPLQDKQSWQSEREIFSTPGMKHENLLQFIAAEKRGSNLEVELWLITAFHDKGSLTDYLKGNIITWNELCHVAETMSRGLSYLHEDVPWCRGEGHKPSIAHRDFKSKNVLLKSDLTAVLADFGLAVRFEPGKPPGDTHGQVGTRRYMAPEVLEGAINFQRDAFLRIDMYAMGLVLWELVSRCKAADGPVDEYMLPFEEEIGQHPSLEELQEVVVHKKMRPTIKDHWLKHPGLAQLCVTIEECWDHDAEARLSAGCVEERVSLIRRSVNGTTSDCLVSLVTSVTNVDLPPKESSI
As for B1, the localisation_or_trafficking entry in series [1] was “decreases”.

B2: ACTRIIB (activin receptor type IIB, ACVR2B): tunicamycin (TM) + CHX (protein)
parent chain: B1 parent chain
Take B2: in series [2], the degradation_or_half_life entry is “decreases”.
